According to publication PMC9889334:

Assays:
[1] = biological target: PaCgi121;PaBud32;PaKae1;PaPcc2-His6 (Pyrococcus abyssi;Pyrococcus abyssi;Pyrococcus abyssi;Pyrococcus abyssi) (UniProt Q9UZ62+Q9UYB9+Q9UXT7+A0A915Q983); experiment: fluorescence anisotropy; details: CBKP2 complex; 3 mM Mg2+; 10 nM tRNA (Suppl. Fig. 7C); 20 mM Tris-HCl pH 8, 150 mM KCl, 3 mM MgCl2, 1% glycerol, 1 nM labelled tRNA (10 nM in Suppl. Fig. 7C), 20 °C, 15 min
[2] = biological target: PaCgi121;PaBud32;PaKae1;PaPcc1-His6;PaPcc2-Strep (Pyrococcus abyssi;Pyrococcus abyssi;Pyrococcus abyssi;Pyrococcus abyssi;Pyrococcus abyssi) (UniProt Q9UZ62+Q9UYB9+Q9UXT7+Q9V1Z9+A0A915Q984); experiment: fluorescence anisotropy; details: CBKP1P2 complex; 3 mM Mg2+; n=3; 20 mM Tris-HCl pH 8, 150 mM KCl, 3 mM MgCl2, 1% glycerol, 1 nM labelled tRNA (10 nM in Suppl. Fig. 7C), 20 °C, 15 min
[3] = biological target: PaPcc2 with C-terminal hexa-histidine tag (Pyrococcus abyssi Pcc2) (Pyrococcus abyssi); experiment: SEC; Ni-NTA eluate on HiLoad 16/600 Superdex 200 pg or Superdex 75 pg; 20 mM Tris-HCl pH 8, 500 mM KCl, 10% glycerol, 5 mM ß-mercaptoethanol
[4] = biological target: CBKP2, PaKEOPS complex with PaPcc2 in place of PaPcc1 (PaCgi121/PaBud32/PaKae1/PaPcc2) (Pyrococcus abyssi) (UniProt Q9UXT7); experiment: SEC-SAXS; purified complexes loaded at 2.55 (CBKP1P2), 0.72 (CBKP1) and 3 mg/ml (CBKP2) on a Bio-SEC3 column; 20 mM Tris pH 8.5, 300 mM NaCl, 5 mM 2-mercaptoethanol, 5% glycerol

Sequence of PaCgi121;PaBud32;PaKae1;PaPcc2-His6 (Pyrococcus abyssi;Pyrococcus abyssi;Pyrococcus abyssi;Pyrococcus abyssi) (Q9UZ62 whole entry, chain 1 of 4): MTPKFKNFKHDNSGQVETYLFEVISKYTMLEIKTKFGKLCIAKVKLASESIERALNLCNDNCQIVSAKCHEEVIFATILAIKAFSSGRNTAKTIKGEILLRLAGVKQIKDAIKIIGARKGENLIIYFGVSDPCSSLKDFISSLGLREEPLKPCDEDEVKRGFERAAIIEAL
Sequence of PaCgi121;PaBud32;PaKae1;PaPcc2-His6 (Pyrococcus abyssi;Pyrococcus abyssi;Pyrococcus abyssi;Pyrococcus abyssi) (Q9UYB9 whole entry, chain 2 of 4): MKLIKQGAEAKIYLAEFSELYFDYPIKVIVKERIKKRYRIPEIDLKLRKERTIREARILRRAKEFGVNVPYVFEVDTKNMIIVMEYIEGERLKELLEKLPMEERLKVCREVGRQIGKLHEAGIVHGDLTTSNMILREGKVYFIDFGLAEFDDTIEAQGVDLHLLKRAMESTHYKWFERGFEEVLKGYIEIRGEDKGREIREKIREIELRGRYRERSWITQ
Sequence of PaCgi121;PaBud32;PaKae1;PaPcc2-His6 (Pyrococcus abyssi;Pyrococcus abyssi;Pyrococcus abyssi;Pyrococcus abyssi) (Q9UXT7 whole entry, chain 3 of 4): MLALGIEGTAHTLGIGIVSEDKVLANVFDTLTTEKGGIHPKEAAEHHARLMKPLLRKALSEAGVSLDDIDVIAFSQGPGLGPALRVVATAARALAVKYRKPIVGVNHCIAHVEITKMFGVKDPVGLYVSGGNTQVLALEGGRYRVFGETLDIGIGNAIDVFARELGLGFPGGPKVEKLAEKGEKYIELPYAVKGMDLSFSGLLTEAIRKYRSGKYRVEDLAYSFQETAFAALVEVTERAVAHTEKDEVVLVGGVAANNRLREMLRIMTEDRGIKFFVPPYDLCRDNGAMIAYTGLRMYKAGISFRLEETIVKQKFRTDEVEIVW
Sequence of PaCgi121;PaBud32;PaKae1;PaPcc2-His6 (Pyrococcus abyssi;Pyrococcus abyssi;Pyrococcus abyssi;Pyrococcus abyssi) (chain, as listed by the source, chain 4 of 4): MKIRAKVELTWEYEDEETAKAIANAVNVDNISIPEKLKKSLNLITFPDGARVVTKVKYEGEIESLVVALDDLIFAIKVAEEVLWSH

Q: With “GGGCCGGUAGCUCAGCCUGGUCAGAGCACCGGGCUUUUAACCCGGUGGUCGCGGGUUCAAAUCCCGCCCGGCCCGCCA [Pa_tRNALys (UUU)]” as the substance, how does the Kd [1] read?
A: 1.8 µM

Q: What about the Kd [2] of the same substance?
A: 0.1 µM

Q: Which stoichiometry N [3] does the source give for “PaPcc2 with C-terminal hexa-histidine tag (Pyrococcus abyssi Pcc2) (natural protein)” here?
A: 2

Q: How did the stoichiometry N [4] turn out when “CBKP2, PaKEOPS complex with PaPcc2 in place of PaPcc1 (PaCgi121/PaBud32/PaKae1/PaPcc2) (from UniProt Q9UXT7 1-324)” was run?
A: 2
